These results are taken from patent US20120149881A1.

In the experiment the target is human IgE with the M1′ sequence (long form of membrane IgE) expressed on transduced BJAB or Daudi cells (human) (UniProt P01854). The experiment in a line: number printed in the titration panel; FIG. 3M calls these numbers 'Scatchard Results' (BJAB-Long cells).

pKd: −log10 of the molar value.

Sequence of human IgE with the M1′ sequence (long form of membrane IgE) expressed on transduced BJAB or Daudi cells (human) (P01854 116-546 I515L limits assumed): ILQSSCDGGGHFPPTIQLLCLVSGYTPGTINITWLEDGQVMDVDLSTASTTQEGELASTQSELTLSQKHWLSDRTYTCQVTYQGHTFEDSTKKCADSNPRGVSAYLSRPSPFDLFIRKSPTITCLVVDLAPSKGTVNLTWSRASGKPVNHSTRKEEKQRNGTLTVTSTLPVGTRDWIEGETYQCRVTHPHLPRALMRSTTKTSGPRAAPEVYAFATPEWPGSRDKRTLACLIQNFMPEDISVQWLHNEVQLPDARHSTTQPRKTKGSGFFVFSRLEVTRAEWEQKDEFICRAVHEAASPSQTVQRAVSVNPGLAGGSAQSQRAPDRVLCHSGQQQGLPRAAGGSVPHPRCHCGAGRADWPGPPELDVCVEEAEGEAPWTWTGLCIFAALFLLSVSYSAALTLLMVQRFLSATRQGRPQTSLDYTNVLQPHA

Consider anti-human IgE antibody MAE11, for which the pKd was 10.40.

A word on the pKd: it is the negative decadic logarithm of the Kd, by convention in mol/L. Read a high pKd as a small Kd.
